For this assay, the target named is SARS-CoV-2 Spike (RBD)-Fc (SARS-CoV-2, UniProt P0DTC2). Description: ELISA.

As to EDLFYQ [wild type Spike S1-Interacting Domain of ACE2 Receptor (SPIDAR) peptide], the binding result is listed as “binds”.

Source of the values: publication PMC8664124 (Journal of immunology (Baltimore, Md. : 1950), 2021).
